Reference: patent US20180155451A1 (published 2018)

Assays:
[1] = target: T1, FcγRIIIa extracellular domain with C-terminal His tag (human, UniProt P08637 17-208); experiment: SPR (Biacore), relative binding, GpH7-A5/GpH7-B3/GpL16-k0 = 100
T1 construct: extracellular domain; also called 3a; FcgRIIIa; not shown: His tag at the C terminus
Procedure: (§1) Analysis of interaction between objective antibody and the FcγR was carried out using Biacore T100 (GE Healthcare). HBS-EP+ (GE Healthcare) was used as the running buffer, and the measurement temperature was set to 25° C. Chips produced by immobilizing the antigen peptide by the amine coupling method to a Series S Sencor Chip CM5 (GE Healthcare), or alternatively, chips produced by allowing preliminarily biotinylated antigen peptides to interact with and immobilize onto a Series S Sensor Chip SA (certified) (GE Healthcare) were used. Antibodies of interest were captured onto an antigen peptide-immobilized chip, and allowed to interact to each FcγR diluted with running buffer. To regenerate and repeatedly use the chip, the antibodies captured on the chip were washed off by reacting 10 mM glycine-HCl, pH 1.5.
(§2) The FcγR-binding activity of each antibody was assessed primarily using as an indicator the FcγR-binding activity and dissociation constant for FcγR.

[2] = target: T2, FcγRIIb extracellular domain with C-terminal His tag (human, UniProt P31994 43-217); experiment: as above
T2 construct: extracellular domain; also called 2b; FcgRIIb; not shown: His tag at the C terminus
T2 sequence (looked up): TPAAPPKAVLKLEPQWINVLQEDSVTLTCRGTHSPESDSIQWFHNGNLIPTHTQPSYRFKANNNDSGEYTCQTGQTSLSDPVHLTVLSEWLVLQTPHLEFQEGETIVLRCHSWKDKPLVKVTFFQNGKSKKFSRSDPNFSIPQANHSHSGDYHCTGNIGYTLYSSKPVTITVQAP
Procedure: as §1, §2

T1 sequence (P08637 17-208): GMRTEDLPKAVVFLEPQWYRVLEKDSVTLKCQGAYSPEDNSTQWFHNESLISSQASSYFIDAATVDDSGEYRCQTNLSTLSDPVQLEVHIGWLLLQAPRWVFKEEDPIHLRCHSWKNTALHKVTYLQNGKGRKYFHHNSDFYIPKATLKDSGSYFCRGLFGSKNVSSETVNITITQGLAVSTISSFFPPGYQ

Binder	He/Con_3a [1]	He/Con_2b [2]
GpH7-A5/GpH7-B3 variant L328_20W/GpL16-k0 (antibody, human IgG1, kappa, He Ab: mutation in the GpH7-B3 H chain only; also called He Ab) heavy 1: not shown heavy 2: not shown light: DIVMTQSPLSLPVTPGEPASISCQASESLVHSNRNTYLHWYLQKPGQSPQLLIYKVSNRFSGVPDRFSGSGSGTDFTLKISRVEAEDVGVYYCSQNTHVPPTFGQGTKVEIERTVAAPSVFIFPPSDEQLKSGTASVVCLLNNFYPREAKVQWKVDNALQSGNSQESVTEQDSKDSTYSLSSTLTLSKADYEKHKVYACEVTHQGLSSPVTKSFNRGEC	37.4 % of control	235 % of control
GpH7-A5/GpH7-B3 variant N325_13S/GpL16-k0 (antibody, human IgG1, kappa, He Ab: mutation in the GpH7-B3 H chain only; also called He Ab) heavy 1: not shown heavy 2: not shown light: DIVMTQSPLSLPVTPGEPASISCQASESLVHSNRNTYLHWYLQKPGQSPQLLIYKVSNRFSGVPDRFSGSGSGTDFTLKISRVEAEDVGVYYCSQNTHVPPTFGQGTKVEIERTVAAPSVFIFPPSDEQLKSGTASVVCLLNNFYPREAKVQWKVDNALQSGNSQESVTEQDSKDSTYSLSSTLTLSKADYEKHKVYACEVTHQGLSSPVTKSFNRGEC	65.1 % of control	177 % of control
GpH7-A5/GpH7-B3 variant P331_07I/GpL16-k0 (antibody, human IgG1, kappa, He Ab: mutation in the GpH7-B3 H chain only; also called He Ab) heavy 1: not shown heavy 2: not shown light: DIVMTQSPLSLPVTPGEPASISCQASESLVHSNRNTYLHWYLQKPGQSPQLLIYKVSNRFSGVPDRFSGSGSGTDFTLKISRVEAEDVGVYYCSQNTHVPPTFGQGTKVEIERTVAAPSVFIFPPSDEQLKSGTASVVCLLNNFYPREAKVQWKVDNALQSGNSQESVTEQDSKDSTYSLSSTLTLSKADYEKHKVYACEVTHQGLSSPVTKSFNRGEC	66 % of control	114 % of control
GpH7-A5/GpH7-B3 variant N325_04F/GpL16-k0 (antibody, human IgG1, kappa, He Ab: mutation in the GpH7-B3 H chain only; also called He Ab) heavy 1: not shown heavy 2: not shown light: DIVMTQSPLSLPVTPGEPASISCQASESLVHSNRNTYLHWYLQKPGQSPQLLIYKVSNRFSGVPDRFSGSGSGTDFTLKISRVEAEDVGVYYCSQNTHVPPTFGQGTKVEIERTVAAPSVFIFPPSDEQLKSGTASVVCLLNNFYPREAKVQWKVDNALQSGNSQESVTEQDSKDSTYSLSSTLTLSKADYEKHKVYACEVTHQGLSSPVTKSFNRGEC	20.7 % of control	143 % of control
GpH7-A5/GpH7-B3 variant N325_09D/GpL16-k0 (antibody, human IgG1, kappa, He Ab: mutation in the GpH7-B3 H chain only; also called He Ab) heavy 1: not shown heavy 2: not shown light: DIVMTQSPLSLPVTPGEPASISCQASESLVHSNRNTYLHWYLQKPGQSPQLLIYKVSNRFSGVPDRFSGSGSGTDFTLKISRVEAEDVGVYYCSQNTHVPPTFGQGTKVEIERTVAAPSVFIFPPSDEQLKSGTASVVCLLNNFYPREAKVQWKVDNALQSGNSQESVTEQDSKDSTYSLSSTLTLSKADYEKHKVYACEVTHQGLSSPVTKSFNRGEC	48 % of control	124 % of control
GpH7-A5/GpH7-B3 variant P331_15Y/GpL16-k0 (antibody, human IgG1, kappa, He Ab: mutation in the GpH7-B3 H chain only; also called He Ab) heavy 1: not shown heavy 2: not shown light: DIVMTQSPLSLPVTPGEPASISCQASESLVHSNRNTYLHWYLQKPGQSPQLLIYKVSNRFSGVPDRFSGSGSGTDFTLKISRVEAEDVGVYYCSQNTHVPPTFGQGTKVEIERTVAAPSVFIFPPSDEQLKSGTASVVCLLNNFYPREAKVQWKVDNALQSGNSQESVTEQDSKDSTYSLSSTLTLSKADYEKHKVYACEVTHQGLSSPVTKSFNRGEC	81.9 % of control	114 % of control
GpH7-A5/GpH7-B3 variant N325_07I/GpL16-k0 (antibody, human IgG1, kappa, He Ab: mutation in the GpH7-B3 H chain only; also called He Ab) heavy 1: not shown heavy 2: not shown light: DIVMTQSPLSLPVTPGEPASISCQASESLVHSNRNTYLHWYLQKPGQSPQLLIYKVSNRFSGVPDRFSGSGSGTDFTLKISRVEAEDVGVYYCSQNTHVPPTFGQGTKVEIERTVAAPSVFIFPPSDEQLKSGTASVVCLLNNFYPREAKVQWKVDNALQSGNSQESVTEQDSKDSTYSLSSTLTLSKADYEKHKVYACEVTHQGLSSPVTKSFNRGEC	28.7 % of control	171 % of control
GpH7-A5/GpH7-B3 variant P331_03V/GpL16-k0 (antibody, human IgG1, kappa, He Ab: mutation in the GpH7-B3 H chain only; also called He Ab) heavy 1: not shown heavy 2: not shown light: DIVMTQSPLSLPVTPGEPASISCQASESLVHSNRNTYLHWYLQKPGQSPQLLIYKVSNRFSGVPDRFSGSGSGTDFTLKISRVEAEDVGVYYCSQNTHVPPTFGQGTKVEIERTVAAPSVFIFPPSDEQLKSGTASVVCLLNNFYPREAKVQWKVDNALQSGNSQESVTEQDSKDSTYSLSSTLTLSKADYEKHKVYACEVTHQGLSSPVTKSFNRGEC	73.2 % of control	119 % of control
GpH7-A5/GpH7-B3 variant N325_03V/GpL16-k0 (antibody, human IgG1, kappa, He Ab: mutation in the GpH7-B3 H chain only; also called He Ab) heavy 1: not shown heavy 2: not shown light: DIVMTQSPLSLPVTPGEPASISCQASESLVHSNRNTYLHWYLQKPGQSPQLLIYKVSNRFSGVPDRFSGSGSGTDFTLKISRVEAEDVGVYYCSQNTHVPPTFGQGTKVEIERTVAAPSVFIFPPSDEQLKSGTASVVCLLNNFYPREAKVQWKVDNALQSGNSQESVTEQDSKDSTYSLSSTLTLSKADYEKHKVYACEVTHQGLSSPVTKSFNRGEC	30.3 % of control	111 % of control
